Values of other authors as cited in paper PMC4125468.
Read-outs that look alike come from different tables or passages of the source.

Experiments:
[1] = biological target: sCD14 (Homo sapiens) (UniProt P08571)
[2] = biological target: MD-2 (Homo sapiens) (UniProt Q9Y6Y9); assay: radioligand binding
[3] = biological target: MD-2 (Homo sapiens) (UniProt Q9Y6Y9)

Sequence of UniProt P08571 (P08571 20-345): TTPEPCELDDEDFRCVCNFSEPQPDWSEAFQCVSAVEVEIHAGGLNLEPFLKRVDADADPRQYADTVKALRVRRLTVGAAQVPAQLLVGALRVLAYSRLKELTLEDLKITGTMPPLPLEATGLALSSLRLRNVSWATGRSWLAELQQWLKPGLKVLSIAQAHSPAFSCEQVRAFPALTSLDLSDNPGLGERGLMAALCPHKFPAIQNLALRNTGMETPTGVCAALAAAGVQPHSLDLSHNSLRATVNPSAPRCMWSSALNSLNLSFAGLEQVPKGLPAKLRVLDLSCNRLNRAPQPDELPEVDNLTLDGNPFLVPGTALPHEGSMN

For MD-2/TLR4ECD ECD (from UniProt Q9Y6Y9), the Kd [1] is listed as 0.2 nM.

For TLR4 ECD (from UniProt O00206), the Kd [2] is listed as 0.5 nM.

For TLR4ECD ECD (from UniProt O00206), the Kd [3] is listed as 0.2 nM.
